Data set [1] deals with NLuc-CLR:RAMP1 membranes with 30 μM purified sumo-miniGs (G protein-coupled state of the CGRPR) (UniProt Q16602). The data set is described as follows: FRET or BRET; nanoBRET equilibrium saturation binding; as the uncoupled format but with 30 μM purified sumo-miniGs (G protein coupled state); 4 h; room temperature. (BRET reads energy transfer from a luciferase to a nearby fluorophore.)

Data set [2] has as its target NLuc-CLR:RAMP1 (human CGRP receptor, CGRPR), membrane preparation (human) (UniProt Q16602). The data set is described as follows: FRET or BRET; nanoBRET association kinetics; membranes injected into 2-fold serial dilutions of TAMRA probe; 25 °C; one-phase association fits, kobs against probe concentration by linear regression (kon slope, koff intercept); Kd calculated as koff/kon.

Data set [3] addresses T1, CGRP receptor (Nluc-CLR:RAMP1) (Homo sapiens, UniProt O60894+Q16602).
T1 construct: N-terminally Nanoluciferase (NLuc)-tagged CLR (pcDNA3.1(+)sec/NanoLuc-GSGIS-CLR.23-461); Wild-type CLR and RAMP expression plasmids were obtained from cDNA.org; sec (vector secretion signal before NanoLuc) (N); expressed in transfected cells; host or cells: COS-7 cells, membrane preparation
Kind of data set: nanoBRET equilibrium competition binding, Nluc-CLR:RAMP1 membranes. Particulars: 8 h, room temperature, Cheng-Prusoff, mean ± SEM, n=3. As to the method:
After 2 days, the cells were washed with PBS and harvested with ice-cold PBS + 5 mM EDTA. The cells were pelleted in a centrifuge at 1000g for 5 min at 4 °C and resuspended in a hypotonic buffer (25 mM NaHEPES pH 7.5, 2 mM MgCl2, 1 mM EDTA, and 1× EDTA-free PIERCE protease inhibitor tablet). After resuspension, cells were homogenized with an Ultra Turrax for 30 s at 10,000 rpm followed by a 10 min incubation. Cell debris was pelleted at 800g for 10 min and the supernatant was transferred to ultracentrifuge tubes and centrifuged at 100,000g for 1 h. Membranes were resuspended in a wash buffer (25 mM NaHEPES pH 7.5, 250 mM NaCl, 2 mM MgCl2, 1 mM EDTA, and 1× protease inhibitor tablet). The homogenization and ultracentrifugation were repeated once more and the membranes were resuspended in storage buffer (25 mM NaHEPES pH 7.5, 25 mM NaCl, 2 mM MgCl2, 10% v/v glycerol, and 1× protease inhibitor tablet). The resuspended membranes were homogenized, aliquoted, and flash frozen in liquid nitrogen for storage at -80 °C. Total protein was quantitated using the DC protein assay (BioRad) per the manufacturer's instructions. The concentration of NLuc-CLR was determined by comparing the membrane prep luminescence to a standard curve using purified NLuc enzyme (Promega; […]). […] The Cheng-Prusoff correction[30] was used to calculate the Ki from the IC50.

Data set [4] deals with T1, CGRP receptor (Nluc-CLR:RAMP1). Kind of data set: nanoBRET dissociation kinetics of TAMRA probes. Format: binding. Here is the method: After 2 days, the cells were washed with PBS and harvested with ice-cold PBS + 5 mM EDTA. The cells were pelleted in a centrifuge at 1000g for 5 min at 4 °C and resuspended in a hypotonic buffer (25 mM NaHEPES pH 7.5, 2 mM MgCl2, 1 mM EDTA, and 1× EDTA-free PIERCE protease inhibitor tablet). After resuspension, cells were homogenized with an Ultra Turrax for 30 s at 10,000 rpm followed by a 10 min incubation. Cell debris was pelleted at 800g for 10 min and the supernatant was transferred to ultracentrifuge tubes and centrifuged at 100,000g for 1 h. Membranes were resuspended in a wash buffer (25 mM NaHEPES pH 7.5, 250 mM NaCl, 2 mM MgCl2, 1 mM EDTA, and 1× protease inhibitor tablet). The homogenization and ultracentrifugation were repeated once more and the membranes were resuspended in storage buffer (25 mM NaHEPES pH 7.5, 25 mM NaCl, 2 mM MgCl2, 10% v/v glycerol, and 1× protease inhibitor tablet). The resuspended membranes were homogenized, aliquoted, and flash frozen in liquid nitrogen for storage at -80 °C. Total protein was quantitated using the DC protein assay (BioRad) per the manufacturer's instructions. The concentration of NLuc-CLR was determined by comparing the membrane prep luminescence to a standard curve using purified NLuc enzyme (Promega; […]). The total protein concentration was 0.91 mg/mL and the NLuc-CLR was 7.35 nM. For dissociation kinetics, the membranes and probe in binding buffer were incubated in a 96-well white plate (Corning; Costar 3912) followed by furimazine addition at 1× for 5 min (75 μL volume). […] The buffer control defined the stability of the signal. […] Unlabeled […](8-37) (4×; 10 μM) or binding buffer was loaded into the injectors and injected into the plate, which was read for 4 h. […](8-37) (4×; 1 μM) or binding buffer was loaded into the injectors and injected into the plate, which was read for 1 h. The BRET ratio 610/460 was plotted against time and the membrane only control was subtracted. The dissociation data were normalized to their corresponding buffer control injections as 100% (100*value/baseline) to account for signal decay with time. The normalized dissociation curves were fit to a one-phase (dashed line) (https://www.graphpad.com/guides/prism/latest/curve-fitting/reg_exponential_[…]) or a two-phase (solid line) (https://www.graphpad.com/guides/prism/latest/curve-fitting/reg_exponential_[…]) exponential decay models in GraphPad Prism to determine the koff.

In data set [5] the target is NLuc-CLR:RAMP1 (human CGRP receptor, CGRPR) in COS-7 membranes (human) (UniProt Q16602). Kind of data set: FRET or BRET; nanoBRET association kinetics of TAMRA probe on NLuc-CLR:RAMP1 COS-7 membranes, 25 C; kobs against probe concentration, linear regression; Kd calculated as koff/kon.
Data set [6] shares this target. Kind of data set: FRET or BRET; nanoBRET equilibrium saturation binding of TAMRA probe to NLuc-CLR:RAMP1 COS-7 membranes (0.08 nM NLuc-CLR), G protein uncoupled state with 50 uM GTPgammaS, room temperature, 25 mM NaHEPES pH 7.4, […] NaCl; one-site specific binding fit.
Data set [7] addresses NLuc-CLR:RAMP1 (human CGRP receptor, CGRPR), membrane preparation (human) (UniProt Q16602). The data set is described as follows: FRET or BRET; nanoBRET equilibrium saturation binding; 3-fold serial dilutions of TAMRA probe with NLuc-CLR:RAMP1 membranes (0.01 mg/mL total protein, 0.08 nM NLuc-CLR) and 50 μM GTPγS (uncoupled state); 2 h or 4 h; room temperature; 25 mM NaHEPES pH 7.4, […] NaCl, 5 mM KCl, 1 mM KH2PO4, 3 mM MgSO4, 2 mM CaCl2, 1 mg/mL FAF-BSA, 50 μg/mL saponin; one-site specific binding fit.

The target is the same in data set [8]. The data set is described as follows: FRET or BRET; nanoBRET competition association kinetics, simultaneous addition of 20 nM CGRP(27-37)*-TAMRA and unlabeled (27-37) peptide; 25 °C; Motulsky-Mahan equation with a signal decay term; Kd calculated as koff/kon.
Data set [9] has the same target.
The target is the same in data set [10]. The data set is described as follows: FRET or BRET; nanoBRET dissociation kinetics; membranes preincubated with probe (1 nM ssCGRP(8-37)-TAMRA or 10 nM AM2/IMD(8-47)-TAMRA), dissociation started by injection of excess unlabeled ssCGRP(8-37); 25 °C; normalised to buffer control; two-phase exponential decay.
Data set [11] deals with T1, CGRP receptor (Nluc-CLR:RAMP1). The data set is described as follows: nanoBRET association kinetics of TAMRA probes. Format: binding. Particulars: association kinetics, 25 °C, mean ± SEM, n=3. As to the method:
After 2 days, the cells were washed with PBS and harvested with ice-cold PBS + 5 mM EDTA. The cells were pelleted in a centrifuge at 1000g for 5 min at 4 °C and resuspended in a hypotonic buffer (25 mM NaHEPES pH 7.5, 2 mM MgCl2, 1 mM EDTA, and 1× EDTA-free PIERCE protease inhibitor tablet). After resuspension, cells were homogenized with an Ultra Turrax for 30 s at 10,000 rpm followed by a 10 min incubation. Cell debris was pelleted at 800g for 10 min and the supernatant was transferred to ultracentrifuge tubes and centrifuged at 100,000g for 1 h. Membranes were resuspended in a wash buffer (25 mM NaHEPES pH 7.5, 250 mM NaCl, 2 mM MgCl2, 1 mM EDTA, and 1× protease inhibitor tablet). The homogenization and ultracentrifugation were repeated once more and the membranes were resuspended in storage buffer (25 mM NaHEPES pH 7.5, 25 mM NaCl, 2 mM MgCl2, 10% v/v glycerol, and 1× protease inhibitor tablet). The resuspended membranes were homogenized, aliquoted, and flash frozen in liquid nitrogen for storage at -80 °C. Total protein was quantitated using the DC protein assay (BioRad) per the manufacturer's instructions. The concentration of NLuc-CLR was determined by comparing the membrane prep luminescence to a standard curve using purified NLuc enzyme (Promega; […]). […] Costar 3912). […] The observed association rates (kobs) were plotted against probe concentration and the data was analyzed by linear regression. The kon and koff were obtained as the slope and y-intercept, respectively.

[12] abbreviates: 1/koff slow, two-phase dissociation, read-out: Residence time slow.

Values joined by “and” are separate entries in the source; they are usually repeats but may differ in a detail not shown here. Equal values may be shown once. Read-outs that look alike come from different tables or passages of the source. Ends that are not written are not given here. Peptide text beside a SMILES is read from it. * marks the point of attachment. 5TAMRA = CN(C)c1ccc2c(c1)Oc1cc(N(C)C)ccc1C21OC(=O)c2cc(C(=O)*)ccc21

Here are results for seven compounds from publication PMC12004451, “Characterization of the Two-Domain Peptide Binding Mechanism of the Human CGRP Receptor for CGRP and the Ultrahigh Affinity ssCGRP Variant” (Biochemistry, 2025).

Consider AM2/IMD(8-47)-TAMRA (peptide), for which, in [1], the Kd – broadly, a measure of binding affinity in units of concentration – amounted to 6.5 nM. Also, in [2], the Kd was 8.1 nM and the half-life was 1.6 min.
“VTHRLAGLLSRSGGVVKNNFVPTDVGPWSF-NH2 [ssCGRP(8-37)]” came in with an affinity (summary, both receptor states) of 0.5 nM. For the same compound, the Ki – broadly, the equilibrium dissociation constant of an inhibitor or competing ligand from its target – in data set [3] (G protein coupled state (30 μM sumo-miniGs), 3 nM AM2/IMD(8-47)-TAMRA probe, read-out: Ki + mGs) came out at 0.6 ± 0.05 nM. Also, in data set [3] (G protein uncoupled state (50 μM GTPγS), 30 nM AM2/IMD(8-47)-TAMRA probe, read-out: Ki + GTPγS), the Ki was 0.43 ± 0.02 nM. In [4] (setting [12]), the residence time – broadly, how long the partners stay bound on average – was 76 min.
As for “αCGRP(27-37) N31D/S34P/K35-TAMRA/A36S/F37Y (peptide)”, the Kd in data set [5] was 22.5 nM. For the same compound, the Kd in data set [6] was 28.7 nM. In data set [2], the Kd was 22.5 nM; the half-life was 0.183 min; the off-rate (koff) (in general, the rate constant with which the complex falls apart) was 0.0635 s⁻¹; the kon (as a rule, a measure of how fast the partners come together) was 2.75e+06 M⁻¹ s⁻¹. Besides, the Kd in data set [7] turned out to be 28.7 nM.
In the case of CGRP(27-37) (peptide), the half-life in [8] is 0.06 min. Moreover, the apparent melting temperature of LMNG/CHS-solubilised MBP-CLR-EGFP:MBP-RAMP1 heterodimer, native PAGE thermostability assay (ligand-free 38.2 °C) in [9] is 39.8 °C.
“αCGRP(8-37) N26K-TAMRA/N31D/S34P/K35W/A36S (peptide)”: in data set [10], the half-life of the fast component came to 13 min, the half-life of the slow component worked out at 52 min, the koff fast turned out to be 0.053 min^–1 and the koff slow was 0.013 min^–1. In [10], the residence time (1/koff slow) amounted to 76 min and the residence time of the fast component was found to be 19 min. In data set [2], the Kd was 0.085 nM, the half-life was 38 min, the koff is 0.0003 s⁻¹ and the kon is 3.62e+06 M⁻¹ s⁻¹. The Kd in data set [7] was found to be 0.4 nM.
Take αCGRP(8-37) (peptide): in data set [9], the apparent melting temperature of LMNG/CHS-solubilised MBP-CLR-EGFP:MBP-RAMP1 heterodimer, native PAGE thermostability assay (ligand-free 38.2 °C) turned out to be 43.6 °C.
Regarding `CC(C)C[C@H](NC(=O)CNC(=O)[C@H](C)NC(=O)[C@H](CC(C)C)NC(=O)[C@H](CCCNC(=N)N)NC(=O)[C@H](Cc1c[nH]cn1)NC(=O)[C@@H](NC(=O)[C@@H](N)C(C)C)[C@@H](C)O)C(=O)N[C@@H](CC(C)C)C(=O)N[C@@H](CO)C(=O)N[C@@H](CCCNC(=N)N)C(=O)N[C@@H](CO)C(=O)NCC(=O)NCC(=O)N[C@H](C(=O)N[C@H](C(=O)N[C@@H](CCCCN)C(=O)N[C@@H](CC(N)=O)C(=O)N[C@@H](CCCCNC(=O)c1ccc2c(c1)C(=O)OC21c2ccc(N(C)C)cc2Oc2cc(N(C)C)ccc21)C(=O)N[C@@H](Cc1ccccc1)C(=O)N[C@H](C(=O)N1CCC[C@H]1C(=O)N[C@H](C(=O)N[C@@H](CC(=O)O)C(=O)N[C@H](C(=O)NCC(=O)N1CCC[C@H]1C(=O)N[C@@H](Cc1c[nH]c2ccccc12)C(=O)N[C@@H](CO)C(=O)N[C@@H](Cc1ccccc1)C(N)=O)C(C)C)[C@@H](C)O)C(C)C)C(C)C)C(C)C` [ssCGRP(8-37)-TAMRA, αCGRP(8-37) N26K-TAMRA/N31D/S34P/K35W/A36S] (H-VTHRLAGLLSRSGGVVKNK(5TAMRA)FVPTDVGPWSF-NH2; N-terminus assumed), the kon in [11] (kobs vs probe concentration, slope of linear regression, fit of first 10 min (full 1 h 15 min for ssCGRP(8-37)-TAMRA)) is 3.62e+06 M⁻¹ s⁻¹. The koff was 0.0003 s⁻¹ in data set [11] (y-intercept of kobs vs probe concentration) and 0.000222 s⁻¹ in data set [4] (two-phase exponential decay, same conditions as koff fast, mean ± SEM, n=3). Further, the residence time is 19.1 ± 1.9 min in [4] (1/koff fast, two-phase dissociation, read-out: Residence time fast) and 75.7 ± 3.49 min in data set [4] (setting [12]). In data set [4] (ln 2/koff fast, two-phase dissociation), the t1/2 fast is 13.25 ± 1.32 min and 13 min. For the same compound, the t1/2 slow in [4] (ln 2/koff slow, two-phase dissociation) is 52.45 ± 2.42 min and 52 min. Besides, in data set [4] (share of the fast component, two-phase dissociation), the Percent fast is 25.6 ± 3.5% and 25.6%.
